Like-named read-outs stand apart in the source and are kept apart here.
Columns and labels:
human GPC3 on cells [1] = molecular target: T1, human GPC3 on cells (human, UniProt P51654 25-554); assay: FACS, Huh-7 cells
human GPC3 on cells [2] = molecular target: T1, human GPC3 on cells; assay: FACS, Hep3B cells
human GPC3 on cells [3] = molecular target: T1, human GPC3 on cells; assay: FACS, GPC3-CHOK1 cells
human GPC3 on cells [4] = molecular target: T1, human GPC3 on cells; assay: FACS, GPC3-CHOK1 cells; remark: listed apart in the source
human GPC3 on cells [5] = molecular target: T1, human GPC3 on cells; assay: FACS, Hep3B cells; remark: listed apart in the source
human GPC3 on cells [6] = molecular target: T1, human GPC3 on cells; assay: FACS, Huh-7 cells; remark: listed apart in the source
human GPC3 on cells [7] = molecular target: T1, human GPC3 on cells; assay: FACS, GPC3-CHOK1 cells; remark: listed apart in the source
human GPC3 on cells [8] = molecular target: T1, human GPC3 on cells; assay: FACS, GPC3-CHOK1 cells; remark: listed apart in the source
human GPC3 on cells [9] = molecular target: T1, human GPC3 on cells; assay: cell-based or functional assay
human GPC3 on cells [10] = molecular target: T1, human GPC3 on cells; assay: FACS, Huh-7 cells; remark: listed apart in the source
human GPC3 on cells [11] = molecular target: T1, human GPC3 on cells; assay: FACS, GPC3-CHOK1 cells; remark: listed apart in the source
human GPC3 on cells [12] = molecular target: T1, human GPC3 on cells; assay: FACS, HEPG2 cells
human GPC3 on cells [13] = molecular target: T1, human GPC3 on cells; assay: FACS, HEPG2 cells; remark: listed apart in the source
human GPC3 on cells [14] = molecular target: T1, human GPC3 on cells; assay: FACS, GPC3-CHOK1 cells; remark: listed apart in the source
human GPC3 on cells [15] = molecular target: T1, human GPC3 on cells; assay: FACS, HEPG2 cells; remark: listed apart in the source
human GPC3 on cells [16] = molecular target: T1, human GPC3 on cells; assay: FACS on GPC3-CHOK1 cells, Alexa Fluor 647 anti-human IgG, AF647-MFI
human GPC3 on cells [17] = molecular target: T1, human GPC3 on cells; assay: cell-based or functional assay; remark: listed apart in the source
human GPC3 on cells [18] = molecular target: T1, human GPC3 on cells; assay: FACS, HEPG2 cells
From the text: (§1) FACS was used to evaluate the binding activity of 52H5D3B8-6 #-VH1+VL1 and 52H5D3B8-6 #-VH2+VL3 with comparison to GC33 (Chugai Pharmaceutical) and Y035 (Carsgen Therapeutics, U.S. Patent Application US20190046659) on human GPC3 over-expressed CHOK1 cells and HEPG2 cells.

human GPC3 on cells [19] = molecular target: T1, human GPC3 on cells; assay: cell-based or functional assay; remark: listed apart in the source
human GPC3 on cells [20] = molecular target: T1, human GPC3 on cells; assay: FACS, Huh-7 cells
Method: (§2) To evaluate the antigen binding property, the humanized antibodies were analyzed for their binding to human GPC3 over-expressed CHOK1 cells, HEPG2 cells, Hep3B cells and Huh-7 cells by FACS. Briefly, GPC3-CHOK1 cells, HEPG2 cells, Hep3B cells and Huh-7 cells were firstly incubated with Fc blocking reagent at 4° C. for 15 mins. Cells were washed by FACS buffer and divided to each well with 4-fold serially diluted humanized antibodies starting at 10 μg/mL at 4° C. for 60 mins. Cells were washed by FACS buffer and fixed with 2% PFA at RT for 15 mins. […] The 16 humanized antibodies were separated into two plates.

human GPC3 on cells [21] = molecular target: T1, human GPC3 on cells; assay: FACS, GPC3-CHOK1 cells
Method: as §2

human GPC3 on cells [22] = molecular target: T1, human GPC3 on cells; assay: FACS, HEPG2 cells; remark: listed apart in the source
Method: as §2

[23] = molecular target: T2, human GPC3-his tag protein (human, UniProt P51654 25-559, limits assumed); assay: SPR Biacore, mAb captured on CM5, GPC3-his dilution series (full kinetics)
T2 construct: recombinant soluble antigen used as analyte in all Biacore runs; also called recombinant GPC3 protein; rhGPC3-His; not shown: His tag

human GPC3 on cells [24] = molecular target: T1, human GPC3 on cells; assay: FACS, Hep3B cells
Method: as §2

[25] = molecular target: T2, human GPC3-his tag protein; assay: SPR Biacore 8K, mAb captured, affinity ranking
human GPC3 on cells [26] = molecular target: T1, human GPC3 on cells; assay: FACS, GPC3-CHOK1 cells; remark: listed apart in the source
From the text: as §1

human GPC3 on cells [27] = molecular target: T1, human GPC3 on cells; assay: FACS, GPC3-CHOK1 cells; remark: listed apart in the source
Method: To evaluate the antigen binding property, the affinity maturated antibodies were analyzed for their binding to human GPC3 over-expressed CHOK1 cells by FACS as previously described.

human GPC3 on cells [28] = molecular target: T1, human GPC3 on cells; assay: FACS, Huh-7 cells; remark: listed apart in the source
Method: as §2

human GPC3 on cells [29] = molecular target: T1, human GPC3 on cells; assay: FACS, HEPG2 cells; remark: listed apart in the source
Method: as §2

human GPC3 on cells [30] = molecular target: T1, human GPC3 on cells; assay: FACS, GPC3-CHOK1 cells; remark: listed apart in the source
Method: (§3) Cell-based binding: FACS was used to evaluate the binding activity of 52H5D3B8, 52H5D3B8-6 # chimeric mAbs and GC33 antibody on human GPC3 over-expressed CHOK1 cells, Hep3B cells and Huh-7 cells.
(§4) Briefly, GPC3-CHOK1 cells, Hep3B cells or Huh-7 cells were firstly incubated with Fc blocking reagent at 4° C. for 15 mins. Cells were washed by FACS buffer and divided to each well with 3-fold serially diluted 52H5D3B8, 52H5D3B8-6 # chimeric mAbs or GC33 antibody starting at 30 μg/mL at 4° C. for 60 mins. Cells were washed by FACS buffer and fixed with 2% PFA at RT for 15 mins. […] Samples were washed twice with FACS buffer.

human GPC3 on cells [31] = molecular target: T1, human GPC3 on cells; assay: FACS, Huh-7 cells; remark: listed apart in the source
Method: as §3, §4

human GPC3 on cells [32] = molecular target: T1, human GPC3 on cells; assay: FACS, GPC3-CHOK1 cells; remark: listed apart in the source
Method: Briefly, GPC3-CHOK1 cells were firstly incubated with Fc blocking reagent at 4° C. for 15 mins. Cells were washed by FACS buffer and divided to each well with 3-fold serially diluted 52H5D3B8, 52H5D3B8-1 #, 52H5D3B8-2 #, 52H5D3B8-3 #, 52H5D3B8-4 #, 52H5D3B8-5 #, 52H5D3B8-6 #, 52H5D3B8-7 #, 52H5D3B8-8 #, 52H5D3B8-9 #, 52H5D3B8-10 #, 52H5D3B8-11 #, 52H5D3B8-12 #, 52H5D3B8-13 #, 52H5D3B8-14 # and 52H5D3B8-15# chimeric mAbs starting at 30 μg/mL at 4° C. for 60 mins. Cells were washed by FACS buffer and fixed with 2% PFA at RT for 15 mins. […] Samples were washed twice with FACS buffer.

human GPC3 on cells [33] = molecular target: T1, human GPC3 on cells; assay: FACS, Hep3B cells; remark: listed apart in the source
Method: as §3, §4

human GPC3 on cells [34] = molecular target: T1, human GPC3 on cells; assay: FACS, Hep3B cells; remark: listed apart in the source
Method: as §2

[35] = molecular target: T2, human GPC3-his tag protein; assay: SPR Biacore 8K, mAb captured, one or two doses GPC3-his
Method: The binding of the optimized antibodies of 52H5D3B8 mAb to human GPC3-his was tested with Biacore using a capture method. A single dose or two doses of human GPC3-his tag protein was injected over captured antibody. All the experiments were carried out on a Biacore 8K. Data analysis was carried out using Biacore 8K evaluation software.

human GPC3 on cells [36] = molecular target: T1, human GPC3 on cells; assay: FACS, GPC3-CHOK1 cells; remark: listed apart in the source
Method: as §2

Row | EC50 of ADCC signaling (Jurkat-hCD16a-NFAT luciferase reporter), HEPG2 cells (human GPC3 on cells [17]) [nM] | EC50 of ADCC signaling (Jurkat-hCD16a-NFAT luciferase reporter), Huh-7 cells (human GPC3 on cells [17]) [nM] | EC50 (human GPC3 on cells [18]) [nM] | EC50 (human GPC3 on cells [20]) [µg/mL] | EC50 (human GPC3 on cells [21]) [µg/mL] | EC50 (human GPC3 on cells [22]) [µg/mL] | Kd [23] [nM] | koff [23] [s⁻¹] | kon [23] [M⁻¹ s⁻¹] | EC50 (human GPC3 on cells [24]) [µg/mL] | Kd [25] [nM] | koff [25] [s⁻¹] | kon [25] [M⁻¹ s⁻¹] | EC50 (human GPC3 on cells [26]) [nM] | Molecule | EC50 of ADCC cytotoxicity (primary NK cells, LDH), HEPG2 cells (human GPC3 on cells [19]) [nM] | EC50 of ADCC cytotoxicity (primary NK cells, LDH), Huh-7 cells (human GPC3 on cells [19]) [nM] | other results
1 |  |  |  |  |  |  |  |  |  |  |  |  |  |  | GC33 (Chugai Pharmaceutical) (antibody) |  |  | EC50 (human GPC3 on cells [1]): 0.147 µg/mL; EC50 (human GPC3 on cells [2]): 0.375 µg/mL; EC50 (human GPC3 on cells [3]): 0.122 µg/mL; EC50 (human GPC3 on cells [4]): 0.166 µg/mL; EC50 (human GPC3 on cells [5]): 0.341 µg/mL; EC50 (human GPC3 on cells [6]): 0.182 µg/mL; EC50 (human GPC3 on cells [7]): 0.131 µg/mL; EC50 (human GPC3 on cells [8]): 0.993 nM; EC50 of ADCC cytotoxicity (primary NK cells, LDH), HEPG2 cells (human GPC3 on cells [9]): 0.276 nM; EC50 of ADCC cytotoxicity (primary NK cells, LDH), Huh-7 cells (human GPC3 on cells [9]): 0.172 nM; EC50 of ADCC signaling (Jurkat-hCD16a-NFAT luciferase reporter), HEPG2 cells (human GPC3 on cells [9]): 0.415 nM; EC50 of ADCC signaling (Jurkat-hCD16a-NFAT luciferase reporter), Huh-7 cells (human GPC3 on cells [9]): 0.29 nM; EC50 (human GPC3 on cells [10]): 0.953 nM; EC50 (human GPC3 on cells [11]): 0.956 nM; EC50 (human GPC3 on cells [12]): 1.28 nM; EC50 (human GPC3 on cells [13]): 0.745 nM; EC50 (human GPC3 on cells [14]): 0.784 nM; EC50 (human GPC3 on cells [15]): 0.181 µg/mL; EC50 (read off the curve) (human GPC3 on cells [16]): 0.1 µg/mL
2 | 0.176 | 0.322 | 0.342 | 0.0362 | 0.038 | 0.0411 | 2.24 | 0.00111 | 497000 | 0.0626 | 1.97 | 0.00112 | 567000 | 0.332 | 52H5D3B8-6#-VH1+VL1 (antibody, V domains shown, humanized) VH: QVQLVQSGAEVKKPGASVKVSCKASGYTFTDYEMHWVRQAPGQGLEWMGAIHPGSGGTAYNQKFKGRVTMTRDTSTSTVYMELSSLRSEDTAVYYCARYYSYAYWGQGTLVTVSS VL: DIVMTQTPLSLSVTPGQPASISCRSSQSLVHSNGNTYLQWYLQKPGQSPQLLIYKVSNRFSGVPDRFSGSGSGTDFTLKISRVEAEDVGVYYCFQSIHVPYTFGGGTKLEIK | 0.0845 | 0.108 | 
3 | 0.174 | 0.265 | 0.354 | 0.0384 | 0.0411 | 0.0438 |  |  |  | 0.0705 | 0.962 | 0.000642 | 668000 | 0.344 | 52H5D3B8-6#-VH2+VL3 (antibody, V domains shown, humanized) VH: QVQLVQSGAEVKKPGASVKVSCKASGYTFTDYEMHWVRQAPGQGLEWIGAIHPGSGGTAYNQKFKGRVTMTADTSTSTVYMELSSLRSEDTAVYYCTRYYSYAYWGQGTLVTVSS VL: DIVMTQTPLSLSVTPGQPASISCRSSQSLVHSNGNTYLQWYLQKPGQSPKLLIYKVSNRFSGVPDRFSGSGSGTDFTLKISRVEAEDVGVYYCFQSIHVPYTFGGGTKLEIK | 0.104 | 0.106 | EC50 (human GPC3 on cells [27]): 0.412 nM
4 |  |  |  | 0.0347 | 0.035 | 0.0452 | 0.446 | 0.000265 | 595000 | 0.0643 | 0.425 | 0.000307 | 721000 |  | 52H5D3B8-6# chimeric mAb (antibody, V domains shown, CDR3 mutant of the 52H5D3B8 chimeric mAb (human IgG1); also called 52H5D3B8-6#-VH+VL) VH: QVQLQQSGAELVRPGASVKLSCKALGYTFTDYEMHWVKQTPVHGLEWIGAIHPGSGGTAYNQKFKGKATLTADKFSSTGYMELSSLTSEDSAVYYCTRYYSYAYWGQGTLVTVSA VL: DVVMTQTPLSLPVSLGDQASISCRSSQSLVHSNGNTYLQWYLQKPGQSPKLLIYKVSNRFSGVPDRFSGSGSGTDFILKISRVEAEDLGVYFCFQSIHVPYTFGGGTKLEIK |  |  | EC50 (human GPC3 on cells [28]): 0.0378 µg/mL; EC50 (human GPC3 on cells [29]): 0.0469 µg/mL; EC50 (human GPC3 on cells [30]): 0.0474 µg/mL; EC50 (human GPC3 on cells [31]): 0.0501 µg/mL; EC50 (human GPC3 on cells [32]): 0.0601 µg/mL; EC50 (human GPC3 on cells [33]): 0.0982 µg/mL; EC50 (human GPC3 on cells [34]): 0.0664 µg/mL; Kd [35]: 0.368 nM; koff [35]: 0.000289 s⁻¹; kon [35]: 785000 M⁻¹ s⁻¹; EC50 (human GPC3 on cells [36]): 0.0389 µg/mL

— patent US20240409663A1 (CONCEPT TO MEDICINE BIOTECH, published 2024)
